For assay [1], the target named is large surface protein of hepatitis B virus (LHBS), full-length (hepatitis B virus). As to the kind of experiment: chemiluminescent sandwich ELISA on pooled HBsAg(+) sera; pre-S1 antibody coated, HBS antibody detecting (platform 2). A general note: ELISA stands for enzyme-linked immunosorbent assay.
Assay [2] has as its target pre-S region E. coli recombinant protein (hepatitis B virus). The assay is described as follows: chemiluminescent ELISA, serially diluted antigen coated, antibody 1:2000.
Assay [3] deals with large surface protein of hepatitis B virus (LHBS), full-length (hepatitis B virus). The assay is described as follows: chemiluminescent sandwich ELISA on pooled HBsAg(+) sera; pre-S1 antibody coated, pre-S2 antibody detecting (platform 1).

pre-S region E. coli recombinant protein (hepatitis B virus), sequence (P03141 2-174): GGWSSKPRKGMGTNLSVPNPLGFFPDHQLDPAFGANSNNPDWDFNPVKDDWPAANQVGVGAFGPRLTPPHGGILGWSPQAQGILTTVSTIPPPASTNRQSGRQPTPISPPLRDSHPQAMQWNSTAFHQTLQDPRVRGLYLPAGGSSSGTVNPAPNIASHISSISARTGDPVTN

B1: HBS monoclonal antibody (antibody, V domains shown)
VH: VQLQQSGPELVKPGASVKMSCKASGYTLTDYVIGWVKQRTGQGLEWIGEVYPGSVYTSYNEKFKGKATLTADKSSNTAYMQLSGLTSDDSAVYFCAYDGYSPFDYWGQGTTLTVSS
VL: NIVMTQSPKSMSMSVGERVTLTCKASENVGTYVSWFQQKPGQSPKLLIYGASNRYIGVPDRFTGSGSATDFTLTISSVQAEDLAEYHCGQSYNYPHTFGGGTKLVIKR
As for B1, the limit of quantification (LOQ) in assay [1] is 1.7 ng/mL.

B2: pre-S2 monoclonal antibody (antibody, V domains shown)
VH: QVQLQQPGTELVKPGTSVKLSCKASGYTFTSYWMHWVKLRPGQGFEWIGEINPSNGITNYNEKFKRKATLTVDKSSTTAYMQLSSLTFEDSAVYYCTIGYDYGSNYEAMDFWGQGTSVTVSS
VL: DIVMTQAAFSNPVTLGTSASMSCRSSKSLLHSNGITYLYWYLQKPGQSPQLLIYQMSNLASGVPDRFSSGGSGTDFTLRISRVEAEDVGVYYCAQNLELPWTFGGGTKLEIK
For the molecule B2, in assay [2], the limit of linearity (LOL) amounted to 1.56 ng/mL and the limit of quantification (LOQ) is 0.04 ng/mL. In assay [3], this molecule came in with a limit of quantification (LOQ) of 13.5 ng/mL.
